The experiment has as its target erbB2 receptor tyrosine kinase (rat (endogenous in primary Schwann cells)) (UniProt P06494). Briefly: co-IP.
Sequence of UniProt P06494 (P06494 23-1257): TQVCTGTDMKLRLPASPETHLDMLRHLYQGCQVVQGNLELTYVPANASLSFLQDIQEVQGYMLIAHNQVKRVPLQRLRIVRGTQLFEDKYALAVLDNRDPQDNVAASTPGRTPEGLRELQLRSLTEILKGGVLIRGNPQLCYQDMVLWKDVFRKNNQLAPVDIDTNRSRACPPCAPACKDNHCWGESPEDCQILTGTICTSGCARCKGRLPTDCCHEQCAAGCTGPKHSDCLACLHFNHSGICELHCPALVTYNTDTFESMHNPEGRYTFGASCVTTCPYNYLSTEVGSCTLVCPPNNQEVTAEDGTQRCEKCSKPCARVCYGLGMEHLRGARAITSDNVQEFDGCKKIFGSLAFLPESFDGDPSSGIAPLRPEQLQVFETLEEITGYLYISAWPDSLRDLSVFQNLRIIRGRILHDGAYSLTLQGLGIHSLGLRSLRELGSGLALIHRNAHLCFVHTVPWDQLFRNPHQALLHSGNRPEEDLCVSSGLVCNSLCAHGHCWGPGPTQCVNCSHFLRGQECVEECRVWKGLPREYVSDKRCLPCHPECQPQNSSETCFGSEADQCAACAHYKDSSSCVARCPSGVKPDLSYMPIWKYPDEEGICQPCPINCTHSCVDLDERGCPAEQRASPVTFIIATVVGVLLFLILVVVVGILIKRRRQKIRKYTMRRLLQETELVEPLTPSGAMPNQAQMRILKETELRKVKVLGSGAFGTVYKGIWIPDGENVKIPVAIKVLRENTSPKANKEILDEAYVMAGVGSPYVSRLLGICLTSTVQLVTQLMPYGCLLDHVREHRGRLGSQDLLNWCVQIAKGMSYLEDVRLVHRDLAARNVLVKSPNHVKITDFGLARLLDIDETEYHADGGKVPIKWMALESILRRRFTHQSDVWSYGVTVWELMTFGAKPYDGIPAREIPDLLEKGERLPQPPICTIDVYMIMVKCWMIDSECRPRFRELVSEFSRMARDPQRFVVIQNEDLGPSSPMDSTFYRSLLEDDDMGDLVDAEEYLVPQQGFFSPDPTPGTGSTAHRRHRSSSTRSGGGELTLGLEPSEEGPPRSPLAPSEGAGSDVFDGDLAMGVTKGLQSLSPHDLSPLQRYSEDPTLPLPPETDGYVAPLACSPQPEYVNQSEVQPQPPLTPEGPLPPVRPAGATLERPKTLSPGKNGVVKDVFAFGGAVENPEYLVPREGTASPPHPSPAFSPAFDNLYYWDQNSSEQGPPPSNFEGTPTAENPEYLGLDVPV

“CD44 transmembrane glycoprotein (from UniProt P26051 22-503) (natural protein)” showed a fold CD44 co-immunoprecipitated with rh-GGF2 against untreated cells of 2 fold.

The values are drawn from PMC2175255.
